Like-named read-outs stand apart in the source and are kept apart here. Non-standard residues stand in square brackets, D forms with d. DO3A10CM = not defined here; Bpa4 = non-natural residue; Amfe4 = not defined here; azaGly = NNC(=O)O; Sar = CNCC(=O)O
Tests used:
[1] = target: LHRH receptor (LHRH binding sites) on EFO-27 human ovarian cancer cells (human); experiment: competition with [125I-Tyr8]BRU-2477 for binding to EFO-27 cells
[2] = tested on: EFO-27 cells; experiment: Internalization/efflux studies in EFO-27 cells; assay type: cell-based, human; details: for Cell associated activity at 0 h % Intern / Cell associated activity at 2 h % Intern: internalized; for Cell associated activity at 0 h % Memb / Cell associated activity at 2 h % Memb: membrane bound; for Bound %: of added; for Bound: per well
Description: Internalization/Efflux Studies: The internalization and efflux studies were carried out following the general procedure. Basically, ^177Lu-LHRH II or ^125I-LHRH II ([^125I-Tyr^8]BRU-2477) (75 uL, 3.0 μCi/mL) was added to the EFO-27 or PC-3 cells. The cells were incubated for 40 min at 37° C. The unbound radioactivity was washed off (4×). Following addition of fresh medium, the cells were further incubated for up to 2 h. At various time points (15, 30, 60 & 120 min) the distribution of radioactivity (membrane-bound, internalized, and efflux) was determined
The internalization and efflux of several Lu-177 labeled LHRH II analogs in EFO-27 cells have been investigated. Basically, following pre-incubation of cells with ^177Lu-LHRH II samples, the binding buffer containing the ^177Lu was replaced with fresh media without complex. The extent of initial internalization (T=0), the amount of radioactive material that remained internalized and the efflux at 0-120 min were determined. The results are shown in FIGS. 21a-f and 22a-c and in Table 25.

[3] = tested on: LHRH binding sites on human ovarian cancer cells (EFO-27);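 further: Cell-associated radioactivity on confluent EFO-27 monolayers in 96-well plates, measured by microplate scintillation counting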
[4] = target: LHRH receptor (LHRH binding sites) on EFO-27 human ovarian cancer cells (human); experiment: competition with [125I-Tyr8]BRU-2477, EFO-27 cells
[5] = target: LHRH binding sites on EFO-27 human ovarian cancer cells (human); experiment: competition with [125I-Tyr8]BRU-2477 on EFO-27 cells

EC50 [1] [nM] | EC50 [4] [nM] | EC50 [5] [nM] | Molecule | other results
3300 | – | – | DO3A10CM-Adoa-Sar-His-Trp-Ser-His-Darg-Trp-Bpa4-Pro-azaGly-NH2 (Seq111) (peptide) | –
– | – | – | N=C(N)NCCC[C@H](NC(=O)[C@@H](Cc1ccc2ccccc2c1)NC(=O)CN1CCN(CC(=O)O)CCN(CC(=O)O)CCN(CC(=O)O)CC1)C(=O)N[C@@H](Cc1c[nH]c2ccccc12)C(=O)N[C@@H](CO)C(=O)N[C@@H](Cc1c[nH]cn1)C(=O)N[C@H](CCCNC(=N)N)C(=O)N[C@@H](Cc1c[nH]c2ccccc12)C(=O)N[C@@H](Cc1ccc(C(=O)c2ccccc2)cc1)C(=O)N1CCC[C@H]1C(=O)NCCOCCN [BRU-2968, DO3A10CM-Dna12-Arg-Trp-Ser-His-Darg-Trp-Bpa4-Pro-Da15o3pt] | Cell associated activity at 0 h % Efflux [2]: 4.9%; Cell associated activity at 0 h % Intern [2]: 14.1%; Cell associated activity at 0 h % Memb [2]: 80.8%; Cell associated activity at 2 h % Efflux [2]: 52.9%; Cell associated activity at 2 h % Intern [2]: 9.0%; Cell associated activity at 2 h % Memb [2]: 38.1%; Bound % [2]: 23.59%; Bound [2]: 68.8 fmol; EC50 [3]: 240 nM
– | – | – | BRU-2756: DO3A10CM LHRH-II analog prepared in house for Lu labeling (DO3A10CM-[Sar][Amfe4]WSH[dR]W[Bpa4]P[azaGly]-NH2; reading uncertain) | Cell associated activity at 0 h % Efflux [2]: 7.7%; Cell associated activity at 0 h % Intern [2]: 42.0%; Cell associated activity at 0 h % Memb [2]: 51.5%; Cell associated activity at 2 h % Efflux [2]: 82.5%; Cell associated activity at 2 h % Intern [2]: 9.9%; Cell associated activity at 2 h % Memb [2]: 7.4%; Bound % [2]: 5.10%; Bound [2]: 10.2 fmol; EC50 ([3]; Table 5: modifications of amino acids at positions 1 and 2, in vitro binding on EFO-27 cells): 280 nM
– | – | – | N=C(N)NCCC[C@@H](NC(=O)[C@H](Cc1c[nH]cn1)NC(=O)[C@H](CO)NC(=O)[C@H](Cc1c[nH]c2ccccc12)NC(=O)[C@H](Cc1c[nH]cn1)NC(=O)[C@@H](Cc1ccc2ccccc2c1)NC(=O)CN1CCN(CC(=O)O)CCN(CC(=O)O)CCN(CC(=O)O)CC1)C(=O)N[C@@H](Cc1c[nH]c2ccccc12)C(=O)N[C@@H](Cc1ccc(C(=O)c2ccccc2)cc1)C(=O)N1CCC[C@H]1C(=O)NNC(N)=O [BRU-2666] | Cell associated activity at 0 h % Efflux [2]: 5.5%; Cell associated activity at 0 h % Intern [2]: 43.6%; Cell associated activity at 0 h % Memb [2]: 50.3%; Cell associated activity at 2 h % Efflux [2]: 80.6%; Cell associated activity at 2 h % Intern [2]: 10.0%; Cell associated activity at 2 h % Memb [2]: 9.5%; Bound % [2]: 12.20%; Bound [2]: 25.0 fmol; EC50 [3]: 470 nM; times more potent than the comparator analog ([3]; BRU-2441 vs BRU-2439, BRU-2666 vs Sar1 analog, BRU-3072 vs Pro9 analog): 2
– | 380 | 380 | XRWSHXWXPX (DO3A10CM on N-terminus; AA1 Thy; AA6 Darg; AA8 Bpa4; AA10 azaGly-NH2) [BRU-3069] | –
440 | 440 | – | XXRWSHXWXPX (N-terminal DO3A10CM; Dlys linker before 1; Dnal2 at 1; Darg at 6; Bpa4 at 8; azaGly-NH2 at 10) [BRU-3099] | –
– | 430 | 430 | XRWSHXWXPX (DO3A10CM on N-terminus; AA1 Dtyr; AA6 Darg; AA8 Bpa4; AA10 azaGly-NH2) [BRU-3054] | –
– | 380 | 380 | XRWSHXWXPX (DO3A10CM on N-terminus; AA1 Qua3; AA6 Darg; AA8 Bpa4; AA10 azaGly-NH2) [BRU-3057] | –
30200 | – | – | XRWSHXWXPG (as printed: Dnal2-R-W-S-H-Darg-W-Bpa4-P-G-Dabt14-DO3A10CM (C-terminal chelator)) [BRU-2990] | –
200 | 200 | – | XRWSHXWXP (Dnal2 at 1; Darg at 6; Bpa4 at 8; C-terminal Dabt14 linker carrying DO3A10CM) [BRU-3042] | –
– | 150 | 150 | XHWSHXWXPX (AA1 Mephe; AA6 Darg; AA8 Bpa4; AA10 azaGly-NH2) [BRU-2734] | –
1480 | – | – | XRWSHXWXP (AA1 Sar; AA6 Darg; AA8 Bpa4; C-terminal Pro9-NHNH-DO3A10CM) [BRU-3074] | fold reduced binding against peptide 18 (BRU-3103) [5]: 5 to 6 fold
370 | 370 | – | XXRWSHXWXPX (N-terminal DO3A10CM; Dap linker before 1; Dnal2 at 1; Darg at 6; Bpa4 at 8; azaGly-NH2 at 10) [BRU-3096] | –
840 | – | – | XRWSHXWXPP (as printed: Sar-R-W-S-H-Darg-W-Bpa4-P-P-Az23po-Da15o3pt-DO3A10CM (C-terminal chelator)) [BRU-3073] | –
– | 250 | 250 | XRXSHXWXPX (DO3A10CM on N-terminus; AA1 Dnal2; AA3 Nal1; AA6 Darg; AA8 Bpa4; AA10 azaGly-NH2) [BRU-3104] | –
– | 380 | 380 | XRXSHXWXPX (DO3A10CM on N-terminus; AA1 Dnal2; AA3 Amfe4; AA6 Darg; AA8 Bpa4; AA10 azaGly-NH2) [BRU-3107] | –
3200 | – | – | XHWSHXWXPX (as printed: DO3A10CM-Adoa-Adoa-Sar-His-Trp-Ser-His-Darg-Trp-Bpa4-Pro-azaGly-NH2 (Adoa-Adoa is the linker)) [BRU-2896] | –
1370 | – | – | GGHWSHXWXPX (as printed: DO3A10CM-Gly-Gly-His-Trp-Ser-His-Darg-Trp-Bpa4-Pro-azaGly-NH2 (first Gly is the linker)) [BRU-2795] | –
240 | 240 | – | XRWSHXWXP (Sar at 1; Darg at 6; Bpa4 at 8; C-terminal Bap14p linker carrying DO3A10CM) [BRU-3044] | –
– | 220 | 220 | XRXSHXWXPX (DO3A10CM on N-terminus; AA1 Dnal2; AA3 Nal2; AA6 Darg; AA8 Bpa4; AA10 azaGly-NH2) [BRU-3105] | –
950 | – | 950 | XHWSHXWXPX (DO3A10CM on N-terminus; AA1 Sar; AA6 Darg; AA8 Bpa4; AA10 azaGly-NH2) [BRU-2443] | fold improvement of EC50 against the Tyr8 analog (BRU-2758) [5]: 10 fold
750 | – | – | XRWSHXWXP (as printed: Sar-R-W-S-H-Darg-W-Bpa4-P-Daprp13-DO3A10CM (C-terminal chelator)) [BRU-3076] | –
500 | 500 | – | XXRWSHXWXPX (N-terminal DO3A10CM; Gly-Abz4 linker before 1; Dnal2 at 1; Darg at 6; Bpa4 at 8; azaGly-NH2 at 10) [BRU-3002] | –

From patent publication US20120045393A1 (priority 2009, published 2012)
